Tested on: Escherichia coli TOP10
Assay: shrunken log2 fold change of peptide-encoding DNA abundance (4.5 h post-induction vs induction); higher = less antimicrobial activity (less host growth inhibition)
Conditions: time post-induction: 4.5 h; library: site-saturation at positions 5, 18, 19, 20
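Note: peptides expressed intracellularly from a pBAD plasmid library in pooled LB shake-flask culture, induced with 0.3% L-arabinose, DNA abundance read by NGS, three biological replicates, DESeq2 with apeglm shrinkage.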

Compared with RRIRVRPPRLPRPRPRPANVPRP, RRIRVRPPRLPRPRPRPAQFPRP is higher in “shrunken log2 fold change” value: -0.597 for the first, 0.341 for the second.

RRIRVRPPRLPRPRPRPASMPRP and RRIRVRPPRLPRPRPRPASYPRP are within 0.2 log units of each other in “shrunken log2 fold change” value: 0.0106 for the first, 0.0708 for the second.

First: RRIRVRPPRLPRPRPRPATFPRP
Second: RRIRVRPPRLPRPRPRPAVVPRP
The “shrunken log2 fold change” value of the first is lower: -0.387 for the first, 0.213 for the second.

RRIRVRPPRLPRPRPRPAVYPRP and RRIRVRPPRLPRPRPRPAYHPRP are within 0.2 log units of each other in “shrunken log2 fold change” value: -0.161 for the first, -0.316 for the second.

First: RRIRVRPPRLPRPRPRPAYQPRP
Second: RRIRVRPPRLPRPRPRPCACPRP
The “shrunken log2 fold change” value of the first is lower: -0.264 for the first, 0.0537 for the second.

RRIRVRPPRLPRPRPRPCFHPRP and RRIRVRPPRLPRPRPRPCFVPRP are within 0.2 log units of each other in “shrunken log2 fold change” value: -0.395 for the first, -0.253 for the second.

Going from RRIRVRPPRLPRPRPRPCGGPRP to RRIRVRPPRLPRPRPRPCHIPRP, the “shrunken log2 fold change” value falls from -0.0341 to -0.312.

Compared with RRIRVRPPRLPRPRPRPCHNPRP, RRIRVRPPRLPRPRPRPCHTPRP is higher in “shrunken log2 fold change” value: -0.362 for the first, -0.0202 for the second.

Compared with RRIRVRPPRLPRPRPRPCIWPRP, RRIRVRPPRLPRPRPRPCLFPRP is lower in “shrunken log2 fold change” value: 0.0495 for the first, -0.592 for the second.

RRIRVRPPRLPRPRPRPCNKPRP and RRIRVRPPRLPRPRPRPCQGPRP are within 0.2 log units of each other in “shrunken log2 fold change” value: -0.311 for the first, -0.226 for the second.

RRIRVRPPRLPRPRPRPCQQPRP and RRIRVRPPRLPRPRPRPCSRPRP are within 0.2 log units of each other in “shrunken log2 fold change” value: 0.00938 for the first, -0.0712 for the second.

RRIRVRPPRLPRPRPRPCTAPRP and RRIRVRPPRLPRPRPRPCTCPRP are within 0.2 log units of each other in “shrunken log2 fold change” value: 0.172 for the first, -0.00748 for the second.

First: RRIRVRPPRLPRPRPRPCTDPRP
Second: RRIRVRPPRLPRPRPRPCTFPRP
The “shrunken log2 fold change” value of the first is lower: -0.46 for the first, -0.0858 for the second.

First: RRIRVRPPRLPRPRPRPCTTPRP
Second: RRIRVRPPRLPRPRPRPCVMPRP
The “shrunken log2 fold change” value of the first is higher: 0.167 for the first, -0.0841 for the second.

RRIRVRPPRLPRPRPRPCVRPRP and RRIRVRPPRLPRPRPRPCVYPRP are within 0.2 log units of each other in “shrunken log2 fold change” value: 0.0421 for the first, -0.136 for the second.

RRIRVRPPRLPRPRPRPCWFPRP and RRIRVRPPRLPRPRPRPCYHPRP are within 0.2 log units of each other in “shrunken log2 fold change” value: -0.106 for the first, -0.00421 for the second.

RRIRVRPPRLPRPRPRPDDHPRP and RRIRVRPPRLPRPRPRPDDMPRP are within 0.2 log units of each other in “shrunken log2 fold change” value: -0.106 for the first, -0.239 for the second.

RRIRVRPPRLPRPRPRPDDTPRP and RRIRVRPPRLPRPRPRPDDWPRP are within 0.2 log units of each other in “shrunken log2 fold change” value: -0.00824 for the first, -0.198 for the second.

First: RRIRVRPPRLPRPRPRPDEMPRP
Second: RRIRVRPPRLPRPRPRPDFNPRP
The “shrunken log2 fold change” value of the first is higher: 0.0261 for the first, -0.344 for the second.

First: RRIRVRPPRLPRPRPRPDHGPRP
Second: RRIRVRPPRLPRPRPRPDHMPRP
The “shrunken log2 fold change” value of the first is higher: -0.0218 for the first, -0.384 for the second.

Compared with RRIRVRPPRLPRPRPRPDLLPRP, RRIRVRPPRLPRPRPRPDQCPRP is higher in “shrunken log2 fold change” value: -0.224 for the first, 0.0862 for the second.

RRIRVRPPRLPRPRPRPDRKPRP and RRIRVRPPRLPRPRPRPDRRPRP are within 0.2 log units of each other in “shrunken log2 fold change” value: 0.0279 for the first, 0.206 for the second.

RRIRVRPPRLPRPRPRPDSCPRP and RRIRVRPPRLPRPRPRPDSHPRP are within 0.2 log units of each other in “shrunken log2 fold change” value: -0.115 for the first, -0.111 for the second.

RRIRVRPPRLPRPRPRPDSIPRP and RRIRVRPPRLPRPRPRPDSNPRP are within 0.2 log units of each other in “shrunken log2 fold change” value: -0.149 for the first, -0.159 for the second.

RRIRVRPPRLPRPRPRPDTQPRP and RRIRVRPPRLPRPRPRPDYDPRP are within 0.2 log units of each other in “shrunken log2 fold change” value: 0.0912 for the first, 0.00442 for the second.

First: RRIRVRPPRLPRPRPRPDYFPRP
Second: RRIRVRPPRLPRPRPRPEDPPRP
The “shrunken log2 fold change” value of the first is lower: -0.163 for the first, 0.476 for the second.

Going from RRIRVRPPRLPRPRPRPEDTPRP to RRIRVRPPRLPRPRPRPEFHPRP, the “shrunken log2 fold change” value falls from 0.106 to -0.489.

RRIRVRPPRLPRPRPRPEGRPRP and RRIRVRPPRLPRPRPRPEHRPRP are within 0.2 log units of each other in “shrunken log2 fold change” value: 0.0493 for the first, -0.0452 for the second.

RRIRVRPPRLPRPRPRPEHYPRP and RRIRVRPPRLPRPRPRPEKSPRP are within 0.2 log units of each other in “shrunken log2 fold change” value: 0.0358 for the first, 0.0304 for the second.

First: RRIRVRPPRLPRPRPRPELYPRP
Second: RRIRVRPPRLPRPRPRPEMNPRP
The “shrunken log2 fold change” value of the first is higher: 0.0948 for the first, -0.16 for the second.

RRIRVRPPRLPRPRPRPEMSPRP and RRIRVRPPRLPRPRPRPEMTPRP are within 0.2 log units of each other in “shrunken log2 fold change” value: 0.0206 for the first, 0.0232 for the second.

First: RRIRVRPPRLPRPRPRPEPAPRP
Second: RRIRVRPPRLPRPRPRPEPMPRP
The “shrunken log2 fold change” value of the first is higher: 0.44 for the first, -0.0177 for the second.

RRIRVRPPRLPRPRPRPERAPRP and RRIRVRPPRLPRPRPRPERCPRP are within 0.2 log units of each other in “shrunken log2 fold change” value: 0.264 for the first, 0.187 for the second.

Going from RRIRVRPPRLPRPRPRPEWHPRP to RRIRVRPPRLPRPRPRPFALPRP, the “shrunken log2 fold change” value rises from -0.158 to 0.0564.

RRIRVRPPRLPRPRPRPFAPPRP and RRIRVRPPRLPRPRPRPFDCPRP are within 0.2 log units of each other in “shrunken log2 fold change” value: 0.0601 for the first, -0.0718 for the second.

RRIRVRPPRLPRPRPRPFDDPRP and RRIRVRPPRLPRPRPRPFDPPRP are within 0.2 log units of each other in “shrunken log2 fold change” value: -0.175 for the first, -0.0153 for the second.

First: RRIRVRPPRLPRPRPRPFEFPRP
Second: RRIRVRPPRLPRPRPRPFGNPRP
The “shrunken log2 fold change” value of the first is lower: -0.284 for the first, 0.0432 for the second.

First: RRIRVRPPRLPRPRPRPFGSPRP
Second: RRIRVRPPRLPRPRPRPFIQPRP
The “shrunken log2 fold change” value of the first is higher: -0.137 for the first, -0.449 for the second.

RRIRVRPPRLPRPRPRPFKHPRP and RRIRVRPPRLPRPRPRPFLHPRP are within 0.2 log units of each other in “shrunken log2 fold change” value: -0.0897 for the first, -0.13 for the second.

Compared with RRIRVRPPRLPRPRPRPFLTPRP, RRIRVRPPRLPRPRPRPFMCPRP is lower in “shrunken log2 fold change” value: -0.0925 for the first, -0.325 for the second.

First: RRIRVRPPRLPRPRPRPFMPPRP
Second: RRIRVRPPRLPRPRPRPFQIPRP
The “shrunken log2 fold change” value of the first is higher: -0.355 for the first, -0.603 for the second.

First: RRIRVRPPRLPRPRPRPFQMPRP
Second: RRIRVRPPRLPRPRPRPFQRPRP
The “shrunken log2 fold change” value of the first is lower: -0.333 for the first, 0.0825 for the second.

RRIRVRPPRLPRPRPRPFSKPRP and RRIRVRPPRLPRPRPRPFSMPRP are within 0.2 log units of each other in “shrunken log2 fold change” value: -0.138 for the first, -0.0688 for the second.

RRIRVRPPRLPRPRPRPFTMPRP and RRIRVRPPRLPRPRPRPFTPPRP are within 0.2 log units of each other in “shrunken log2 fold change” value: -0.368 for the first, -0.412 for the second.

RRIRVRPPRLPRPRPRPFWFPRP and RRIRVRPPRLPRPRPRPFWKPRP are within 0.2 log units of each other in “shrunken log2 fold change” value: 0.149 for the first, 0.0154 for the second.

First: RRIRVRPPRLPRPRPRPFWVPRP
Second: RRIRVRPPRLPRPRPRPFWYPRP
The “shrunken log2 fold change” value of the first is higher: 0.421 for the first, -0.308 for the second.

Compared with RRIRVRPPRLPRPRPRPFYKPRP, RRIRVRPPRLPRPRPRPFYTPRP is higher in “shrunken log2 fold change” value: -0.502 for the first, 0.508 for the second.

RRIRVRPPRLPRPRPRPGAGPRP and RRIRVRPPRLPRPRPRPGAKPRP are within 0.2 log units of each other in “shrunken log2 fold change” value: 0.284 for the first, 0.189 for the second.

First: RRIRVRPPRLPRPRPRPGASPRP
Second: RRIRVRPPRLPRPRPRPGDKPRP
The “shrunken log2 fold change” value of the first is higher: 0.583 for the first, 0.00318 for the second.

RRIRVRPPRLPRPRPRPGFDPRP and RRIRVRPPRLPRPRPRPGFLPRP are within 0.2 log units of each other in “shrunken log2 fold change” value: 0.0552 for the first, 0.101 for the second.

Going from RRIRVRPPRLPRPRPRPGFSPRP to RRIRVRPPRLPRPRPRPGGHPRP, the “shrunken log2 fold change” value rises from -0.101 to 0.13.

Going from RRIRVRPPRLPRPRPRPGILPRP to RRIRVRPPRLPRPRPRPGIMPRP, the “shrunken log2 fold change” value rises from -0.466 to -0.000355.

Going from RRIRVRPPRLPRPRPRPGLPPRP to RRIRVRPPRLPRPRPRPGNEPRP, the “shrunken log2 fold change” value falls from 0.113 to -0.203.

Compared with RRIRVRPPRLPRPRPRPGNKPRP, RRIRVRPPRLPRPRPRPGQLPRP is higher in “shrunken log2 fold change” value: -0.286 for the first, 0.208 for the second.

In the case of RRIRVRPPRLPRPRPRPGQMPRP, the “shrunken log2 fold change” value was -0.0386.

From the supplement of paper PMC9112550, “Optimization of the antimicrobial peptide Bac7 by deep mutational scanning” (BMC Biology, 2022)
